Measurements taken from the supplement of paper PMC10724198.
± gives the standard deviation of the averaged measurements.

The sequences below were run on Saccharomyces cerevisiae (assay: protein stability index of tFT-peptide fusion (C-terminal peptide) (PSI (0-1 scale)); higher = more stable (slower turnover)). Details: genetic background: wild type; temperature: 30 C.
Experimental: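 MPS profiling in S. cerevisiae of the yeast C-terminome library: the last 12 aa of each annotated ORF are fused to the C-terminus of a sfGFP-mCherry timer, after a GGGS linker. Cells are FACS-sorted into 8 mCherry/sfGFP bins and deep-sequenced. PSI runs from 0 (unstable) to 1 (stable); wild type and das1Δ backgrounds, two technical replicates each.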

Sequence | protein stability index
PAAVFTETLKHD [RPL4A C-terminal 12 aa] | 0.7 ± 0.022
PAETTDEGWTMI [ATG26 C-terminal 12 aa] | 0.68 ± 0.014
PDLPSTIKPLAD [BCH2 C-terminal 12 aa] | 0.693 ± 0.0094
PIALTMFQRWAS [UPA1 C-terminal 12 aa] | 0.498 ± 0.038
PIRRQFYLNSRQ [YML047W-A C-terminal 12 aa] | 0.691 ± 0.017
PISPIGNAGSQI [MIN10 C-terminal 12 aa] | 0.6629 ± 0.0022
PISSKYTDGKKR [YPL205C C-terminal 12 aa] | 0.695 ± 0.013
PLQRNSNVSHHL [MPH2 C-terminal 12 aa] | 0.7038 ± 0.0037
PMGDIPVHLFKR [ACF4 C-terminal 12 aa] | 0.729 ± 0.014
PNKDVEQGNDMV [AKR1 C-terminal 12 aa] | 0.695 ± 0.05
PQDKPAGQSIWL [HRR25 C-terminal 12 aa] | 0.6948 ± 0.0048
PREGRLDKTPTY [KAR9 C-terminal 12 aa] | 0.704 ± 0.036
PRPACGVIGLTN [SOD1 C-terminal 12 aa] | 0.726 ± 0.008
PSRVALVLALKE [GLC3 C-terminal 12 aa] | 0.747 ± 0.029
PVIYGLPIKFVS [ESP1 C-terminal 12 aa] | 0.389 ± 0.0063
QAERQLYDAYFH [YFL064C C-terminal 12 aa] | 0.733 ± 0.038
QASSEKKWYKFW [COX20 C-terminal 12 aa] | 0.6753 ± 0.0053
QGILMAKQYHIK [YSA1 C-terminal 12 aa] | 0.702 ± 0.02
QGKTFYETVAKF [PST2 C-terminal 12 aa] | 0.776 ± 0.017
QHQQENPNLIDI [YAP1802 C-terminal 12 aa] | 0.734 ± 0.063
QIDDVNILKKNP [LIP2 C-terminal 12 aa] | 0.702 ± 0.053

Sequence | protein stability index
QIPPEVQKWYYV [PPA2 C-terminal 12 aa] | 0.593 ± 0.02
QLEKEGEDGLDS [IES4 C-terminal 12 aa] | 0.666 ± 0.043
QLITLLSKHLRT [HMS2 C-terminal 12 aa] | 0.676 ± 0.042
QLQLIMFGKKFK [AAC1 C-terminal 12 aa] | 0.717 ± 0.036
QPPAAAEGEAPK [BMH1 C-terminal 12 aa] | 0.715 ± 0.026
QQQKVLAATLEK [HVG1 C-terminal 12 aa] | 0.656 ± 0.012
QRCCECASGNGC [YDR442W C-terminal 12 aa] | 0.668 ± 0.035
QRTLVYKHKNDC [YLR285C-A C-terminal 12 aa] | 0.657 ± 0.0068
QRTQAICIDKKW [YJL135W C-terminal 12 aa] | 0.6986 ± 0.0032
QVRDILDKLNII [PRB1 C-terminal 12 aa] | 0.6877 ± 0.0033
RACPLRPKSLIA [YMR315W-A C-terminal 12 aa] | 0.667 ± 0.032
RAEIVIEEAGEL [CPR3 C-terminal 12 aa] | 0.6789 ± 0.0032
RDLHVEHDNEFY [RPD3 C-terminal 12 aa] | 0.662 ± 0.074
RDLNKLRSFQNF [YFL012W C-terminal 12 aa] | 0.4914 ± 0.0021
RDREMVRELFRR [RSO55 C-terminal 12 aa] | 0.692 ± 0.021
RFREEAYYSQFR [TCD2 C-terminal 12 aa] | 0.672 ± 0.037
RHEGQRSKNSVK [GYP7 C-terminal 12 aa] | 0.689 ± 0.019
RIEKYSDDVIPK [RIM13 C-terminal 12 aa] | 0.722 ± 0.0089
RKEIRKQKRATF [MRPS28 C-terminal 12 aa] | 0.734 ± 0.028
RKEKDPETYLDK [ERG8 C-terminal 12 aa] | 0.684 ± 0.01
RKNGYDIMTLHE [CLB1 C-terminal 12 aa] | 0.666 ± 0.027

Sequence | protein stability index
RLGLDWKPDGMS [STD1 C-terminal 12 aa] | 0.6963 ± 0.0059
RLIKHINDIFWK [GPI13 C-terminal 12 aa] | 0.723 ± 0.092
RLKDGSVTCIKS [HMG1 C-terminal 12 aa] | 0.7 ± 0.021
RNKKKRFSWVGY [LAA2 C-terminal 12 aa] | 0.661 ± 0.044
RNYQKKGNKGCI [YCL076W C-terminal 12 aa] | 0.679 ± 0.034
RPIFPFLIVLIS [YBR196C-A C-terminal 12 aa] | 0.1088 ± 0.00092
RPPRTRIPRLRR [YKR047W C-terminal 12 aa] | 0.708 ± 0.036
RPSTNDPTSCCS [YPT52 C-terminal 12 aa] | 0.705 ± 0.03
RQRQLKSPQNVL [TYW3 C-terminal 12 aa] | 0.696 ± 0.046
RRLDDLETTMRM [SFH1 C-terminal 12 aa] | 0.662 ± 0.029
RRLKIQLCCISK [YHR180C-B C-terminal 12 aa] | 0.6544 ± 0.004
RRQSPPGYYVIR [YLR311C C-terminal 12 aa] | 0.708 ± 0.027
RRSQLREHACVD [LDB7 C-terminal 12 aa] | 0.7096 ± 0.0049
RRTQAQSRSRKA [PKR1 C-terminal 12 aa] | 0.706 ± 0.037
RSIIKLPVTKGL [YBL008W-A C-terminal 12 aa] | 0.6596 ± 0.0024
RSPKGNSIIEEI [BTN2 C-terminal 12 aa] | 0.655 ± 0.02
RSRNKALVSVST [VPS63 C-terminal 12 aa] | 0.667 ± 0.049
RVPKKNGKLSKK [PDR5 C-terminal 12 aa] | 0.704 ± 0.055
RYRNQIDDFDFS [IMP3 C-terminal 12 aa] | 0.754 ± 0.097
SAAIGAQSGLYI [PBA1 C-terminal 12 aa] | 0.67 ± 0.0091
SCQRILQELEKP [CAK1 C-terminal 12 aa] | 0.705 ± 0.055

Sequence | protein stability index
SDILKYILLGSN [SNF4 C-terminal 12 aa] | 0.6783 ± 0.0061
SDVAKQLASFGY [RPL16B C-terminal 12 aa] | 0.6663 ± 0.00093
SEEKSNLIEFEA [MDR1 C-terminal 12 aa] | 0.6734 ± 0.0028
SEFPTCCDQAAI [SLZ1 C-terminal 12 aa] | 0.721 ± 0.0094
SGGFGGSGSGFI [FUB1 C-terminal 12 aa] | 0.691 ± 0.013
SGLIIAEAGIGG [YAL031W-A C-terminal 12 aa] | 0.7129 ± 0.0038
SGVGAALCALVA [EMI2 C-terminal 12 aa] | 0.602 ± 0.025
SGYSFNGSYGKS [WHI4 C-terminal 12 aa] | 0.659 ± 0.022
SHLFFQLSCSLY [YLL044W C-terminal 12 aa] | 0.736 ± 0.069
SIDETELAKWNE [PEP3 C-terminal 12 aa] | 0.7 ± 0.048
SIGLTNLFLYRV [YDR010C C-terminal 12 aa] | 0.681 ± 0.01
SIRKKSKYAYAA [TPO1 C-terminal 12 aa] | 0.642 ± 0.021
SKASLINKLIGN [NTR2 C-terminal 12 aa] | 0.7 ± 0.013
SKLNNGEIIVID [SRS2 C-terminal 12 aa] | 0.702 ± 0.047
SKNILSFFTRKK [RAD30 C-terminal 12 aa] | 0.673 ± 0.0077
SKNVPALHMGGL [PBS2 C-terminal 12 aa] | 0.6721 ± 0.0054
SKPALGSCLYEL [GAL1 C-terminal 12 aa] | 0.687 ± 0.012
SLGGDVHSRRCS [ROQ1 C-terminal 12 aa] | 0.662 ± 0.018
SLKTFINDVLSF [SLS1 C-terminal 12 aa] | 0.717 ± 0.029
